# Results taken from publication PMC4846438, “The crystal structure of human dopamine β-hydroxylase at 2.9 Å resolution” (Science Advances, 2016).
# Where “and” joins values, the source holds several entries; their conditions need not be identical. Identical values can stand only once.
# B1: soluble human dopamine β-hydroxylase, residues 40 to 617, FLAG-tagged (enzyme, UniProt P09172 40-617, looked up)
# chain: SAPRESPLPYHIPLDPEGSLELSWNVSYTQEAIHFQLLVRRLKAGVLFGMSDRGELENADLVVLWTDGDTAYFADAWSDQKGQIHLDPQQDYQLLQVQRTPEGLTLLFKRPFGTCDPKDYLIEDGTVHLVYGILEEPFRSLEAINGSGLQMGLQRVQLLKPNIPEPELPSDACTMEVQAPNIQIPSQETTYWCYIKELPKGFSRHHIIKYEPIVTKGNEALVHHMEVFQCAPEMDSVPHFSGPCDSKMKPDRLNYCRHVLAAWALGAKAFYYPEEAGLAFGGPGSSRYLRLEVHYHNPLVIEGRNDSSGIRLYYTAKLRRFNAGIMELGLVYTPVMAIPPRETAFILTGYCTDKCTQLALPPSGIHIFASQLHTHLTGRKVVTVLVRDGREWEIVNQDNHYSPHFQEIRMLKKVVSVHPGDVLITSCTYNTEDRELATVGGFGILEEMCVNYVHYYPQTQLELCKSAVDAGFLQKYFHLINRFNNEDVCTCPQASVSQQFTSVPWNSFNRDVLKALYSFAPISMHCNKSSAVRFQGEWNLQPLPKVISTLEEPTPQCPTSQGRSPAGPTVVSIGGGKG
# modifications: glycosylation at Asn64, Asn184, Asn344 and Asn566; intermolecular disulfides C528-C530 and C530-C528 between the two chains of the dimer
# notes: human dopamine β-hydroxylase, residues 40 to 617; the first 39 residues (signal anchor for type II membrane proteins) left out to obtain soluble DBH; the dimeric fraction was crystallised; A SeMet-labelled form was used for phasing only; also called DBH; dopamine β-monooxygenase; not shown: FLAG, C-terminal, kept
# Target: the molecule itself
# Assay: SEC; Superdex 200 HR 16/60, 10 mM Hepes, 150 mM NaCl, pH 7.5, 1 ml/min; dimer and tetramer separated; they do not interconvert in the pH interval 4 to 9
protein,measurement,value
B1,stoichiometry N,2 and 4
